Laboratory results taken from publication PMC7820290.

Molecular target: SARS-CoV-2 nucleocapsid (N), wild type (SARS-CoV-2, UniProt P0DTC9 1-419)
Assay: co-condensation microscopy; 10 uM N, maximal at 5 uM RNA, reentrant
Conditions: protein: recombinant; tags: N-terminal His6 cleaved by TEV; Cys inserted before residue 1 in the dye-labelled fraction; chain copies: 2; label: 6-FAM (fluorescein)

AAGCAGCUAAGAGCGAA (ssRNA) [17-mer RNA]
binding result: binds
